Target: the molecule itself
Assay: native gel or EMSA

B1: flag-tagged STING (stimulator of interferon genes) (natural protein, UniProt Q3TBT3 1-378, looked up)
chain: MPYSNLHPAIPRPRGHRSKYVALIFLVASLMILWVAKDPPNHTLKYLALHLASHELGLLLKNLCCLAEELCHVQSRYQGSYWKAVRACLGCPIHCMAMILLSSYFYFLQNTADIYLSWMFGLLVLYKSLSMLLGLQSLTPAEVSAVCEEKKLNVAHGLAWSYYIGYLRLILPGLQARIRMFNQLHNNMLSGAGSRRLYILFPLDCGVPDNLSVVDPNIRFRDMLPQQNIDRAGIKNRVYSNSVYEILENGQPAGVCILEYATPLQTLFAMSQDAKAGFSREDRLEQAKLFCRTLEEILEDVPESRNNCRLIVYQEPTDGNSFSLSQEVLRHIRQEEKEEVTMNAPMTSVAPPPSVLSQEPRLLISGMDQPLPLRTDLI
- stoichiometry N: 2
